According to the supplement of paper PMC10567573:
± gives the standard deviation.

Assay: protein stability index of a GFP-peptide fusion (GPS, HEK-293T) (PSI 1-6); higher = more stable
[1] = treatment: DMSO, c terminus: a fixed tail appended
[2] = treatment: MLN4924 1 uM, 8 h, c terminus: a fixed tail appended
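Also: 24-mer peptide tiles fused after GFP, lentivirally expressed, FACS-sorted into six equal bins by GFP/DsRed ratio, decoded by Illumina sequencing, PSI is the read-weighted mean bin number.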

Row | Sequence | protein stability index [1] | protein stability index [2] | protein stability index (treatment: DMSO, c terminus: native) | protein stability index (treatment: MLN4924 1 uM, 8 h, c terminus: native)
1 | WIIKSNYQGLPVRCVKSIIRQVLQ [SRPK2] | 2.75 ± 0.48 | 2.78 ± 0.5 |  | 
2 | WLQERYEIVGNLGEGTFGKVVECL [CLK3] | 2.24 ± 0.068 | 2.27 ± 0.12 |  | 
3 | WLRVLNPDLVKGPWTKEEDQKVIE [MYBL2] | 2.61 ± 0.36 | 2.92 ± 0.18 |  | 
4 | WTFYPRFSSNIHTYHVGKQCFFNG [SPATS1] | 2.74 ± 0.53 | 2.24 ± 0.33 |  | 
5 | YAATTTPFTPLHIKVKPKRVGIFL [TRIM39] | 2.52 ± 0.58 | 2.81 ± 1.1 |  | 
6 | YAVTPLPWCPHLVAVCPIPAAGLD [HDAC6] | 2.99 ± 0.49 | 2.33 ± 0.48 |  | 
7 | YDILPLSPVSRNRLAQVKRKILVL [CTDNEP1] | 2.11 ± 0.36 | 2.35 ± 0.22 |  | 
8 | YFCYKAILEFAEKEGMVSSGQNLL [PTPN9] | 2.2 ± 0.31 | 2.38 ± 0.46 |  | 
9 | YGGRSVAPQNSFSAKLAPHYFHSI [KCNK9] | 2.23 ± 0.11 | 2.3 ± 0.3 |  | 
10 | YLEVLETMDNKKGRRYEAVKWMVV [CLCN6] | 2.4 ± 0.72 | 2.25 ± 0.28 |  | 
11 | YLQKIEEFAEMVEREEEDDALDSE [KCNG1] | 5 ± 0.51 | 5.15 ± 0.17 |  | 
12 | YPFQDSEPVLLFGKIRRGAYALPA [TRIB3] | 2.48 ± 0.27 | 2.66 ± 0.12 |  | 
13 | YPFVLFYSKFHGLEMCVDARTFGN [KMT2E] | 2.87 ± 0.51 | 2.28 ± 0.33 |  | 
14 | YPGIRAGRKNAAPLTIRPPTDWE [TRIM39] |  |  | 3.44 ± 0.31 | 3.9 ± 0.36
15 | YRSEDLLDVDTAAGGFQQRQGLKY [FBXO3] | 4.25 ± 0.18 | 4.18 ± 0.29 |  | 
16 | YRTVVRPTYKVMYKIVTAREWRCC [EMID1] | 2.71 ± 0.79 | 2.38 ± 0.44 |  | 
17 | YSHLGGIDYKTTTILLDGQRVKLK [RAB40A] | 3.12 ± 0.29 | 3.25 ± 0.23 |  | 
18 | YYIDDVFHALVREIRRKEKEAVLA [RIT1] | 2.27 ± 0.32 | 1.94 ± 0.53 |  | 
